# From patent US20050032189A1 (published 2005)
# B1: recombinant Saxatilin (ligand)
# chain: EAGEECDCGAPANPCCDAATCKLRPGAQCAEGLCCDQCRFMKEGTICRMARGDDMDDYCNGISAGCPRNPFHA
# Target: T1, Vitronectin receptor, αVβ3 integrin, localized on the HUVEC surface (human, UniProt P06756 31-1048; P05106 27-788)
# T1 construct: whole, on cells; Present on bFGF-stimulated HUVEC in the cell adhesion assay; also called integrin αVβ3
# Assay: HUVEC adhesion assay on Saxatilin- and Vitronectin-coated plates
# T1 sequence (P06756 31-1048, chain 1 of 2): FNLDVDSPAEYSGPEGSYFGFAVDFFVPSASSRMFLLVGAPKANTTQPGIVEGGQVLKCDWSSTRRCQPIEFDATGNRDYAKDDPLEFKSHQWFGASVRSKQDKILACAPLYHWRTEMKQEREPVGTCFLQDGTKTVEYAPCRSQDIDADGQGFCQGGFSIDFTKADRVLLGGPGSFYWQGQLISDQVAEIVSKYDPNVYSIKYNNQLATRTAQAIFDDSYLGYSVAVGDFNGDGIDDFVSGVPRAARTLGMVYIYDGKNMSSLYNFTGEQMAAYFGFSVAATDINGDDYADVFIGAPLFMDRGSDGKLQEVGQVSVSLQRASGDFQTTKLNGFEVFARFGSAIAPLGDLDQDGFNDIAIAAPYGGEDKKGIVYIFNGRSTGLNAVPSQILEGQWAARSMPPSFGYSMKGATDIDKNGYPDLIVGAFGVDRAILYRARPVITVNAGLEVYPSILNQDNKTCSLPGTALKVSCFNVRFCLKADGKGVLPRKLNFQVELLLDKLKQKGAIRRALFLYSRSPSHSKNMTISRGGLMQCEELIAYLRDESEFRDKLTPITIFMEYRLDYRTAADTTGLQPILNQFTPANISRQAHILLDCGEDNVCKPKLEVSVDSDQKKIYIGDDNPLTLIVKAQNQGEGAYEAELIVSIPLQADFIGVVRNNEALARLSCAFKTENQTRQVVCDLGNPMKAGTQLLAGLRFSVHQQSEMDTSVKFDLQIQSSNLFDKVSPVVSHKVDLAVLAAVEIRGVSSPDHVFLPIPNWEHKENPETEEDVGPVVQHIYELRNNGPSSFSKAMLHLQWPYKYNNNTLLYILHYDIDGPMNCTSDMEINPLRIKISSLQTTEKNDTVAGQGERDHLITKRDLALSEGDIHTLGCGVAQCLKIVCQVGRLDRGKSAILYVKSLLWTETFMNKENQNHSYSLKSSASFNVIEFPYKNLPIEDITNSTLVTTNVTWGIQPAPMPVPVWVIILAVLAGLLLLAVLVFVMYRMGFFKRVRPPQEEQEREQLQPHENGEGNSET
# T1 sequence (P05106 27-788, chain 2 of 2): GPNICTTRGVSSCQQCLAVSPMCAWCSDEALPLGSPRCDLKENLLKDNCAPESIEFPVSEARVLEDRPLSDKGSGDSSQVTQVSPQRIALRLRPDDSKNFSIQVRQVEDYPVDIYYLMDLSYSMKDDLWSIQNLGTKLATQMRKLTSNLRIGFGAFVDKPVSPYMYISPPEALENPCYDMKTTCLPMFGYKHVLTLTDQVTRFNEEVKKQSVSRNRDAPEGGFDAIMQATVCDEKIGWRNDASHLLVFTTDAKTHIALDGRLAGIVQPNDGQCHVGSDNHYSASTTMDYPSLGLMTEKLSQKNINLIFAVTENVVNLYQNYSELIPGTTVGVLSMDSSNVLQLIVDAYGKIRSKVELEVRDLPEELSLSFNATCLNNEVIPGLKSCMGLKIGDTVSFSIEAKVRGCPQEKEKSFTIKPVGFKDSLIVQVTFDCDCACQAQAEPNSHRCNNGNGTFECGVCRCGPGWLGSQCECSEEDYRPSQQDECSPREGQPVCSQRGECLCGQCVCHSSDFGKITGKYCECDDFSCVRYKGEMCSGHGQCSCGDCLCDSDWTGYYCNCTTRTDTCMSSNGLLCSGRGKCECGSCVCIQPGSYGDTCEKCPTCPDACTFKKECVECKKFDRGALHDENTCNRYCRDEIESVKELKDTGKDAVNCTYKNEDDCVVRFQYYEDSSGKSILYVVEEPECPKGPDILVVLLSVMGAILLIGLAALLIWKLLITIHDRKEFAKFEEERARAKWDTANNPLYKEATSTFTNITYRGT
binder,measurement,value
B1,binding result,binds
